{"source": "paper doi:10.1101/2025.05.13.653810", "about": "“Spatial control of secretory vesicle targeting by the Ync13–Rga7–Rng10 complex during cytokinesis” (bioRxiv, 2025)", "binders": {"B1": {"name": "Rga7–6xHis (natural protein, S. pombe, UniProt O94466 1-695, looked up)", "chain": "MLSAPSSSTTPASPPTSPPNTTSSDDFAVLKEPKVEAILNSELGLAILNDRIKDYLLTCKELAGFFKKRSILEEESGKNLQKLAKSYLETFQSKHHSPQSFSASVITSMEIHEQLANHSLTLQKTLSAFSDQVIEFHKNAERKRKSIKEYAKKQENAYLEAVMQMDKSKSRFKGAETEYNRALDNKNTGDSQKKVGFFKPKSNAQLTKLEDEARLKAENAESDMHSKIENAQNVQKQLLCIHRPNYIKQFFSLQREIESSLIANYLRYTKLCESNTLLNGLTIRPQKPTPTNCGLQHALDNINANTDFVQYVLHASIKHEDNKNPTDASKTKIIQPPSSYGTGSSAGKTNPPVNPTIKVTAAIPSPLQNTNPAPSTFPNPSVASPAFPNSSTSNPSTAPASASPLASTLKPSTANDTNGSSSSSSSNPRTSSPLASNAENKPPVAQQSPPVLLPTLPPIQTTTIQTSREVAPPPSSINSNRAASPFRPTSVSPQPSSPTKSLLFGARLDAIILREHSNIPNIVMQCTSQVENFGLNLQGIYRVPSSSARVNMLRSQFENNPLLQLHTPEDYENDVHAVADLLKIFFRELREPLIPDNHQRDFIDAGNVEDESRRRDAVHRAINDLPDANYSTIRHLTIHLAKIKENSDVNKMSTNNLAIIWGPTIIKQATIPEISSFSRTIEILIDYCFTIFDYD", "notes": "Rga7, F-BAR protein and Rho2 GAP of S. pombe; full length, cloned into pET21a between the T7 tag and the 6His tag; also called Rga7–6His; not shown: His6, C-terminal, kept"}}, "target": "T1, MBP-Ync13–6xHis (S. pombe, UniProt O13683 1-1237)", "T1 construct": "Ync13, the S. pombe homolog of Munc13/UNC-13; full-length cDNA between MBP-TEV-GGSGGS and the 6His tag of pET21a; MBP is followed by a TEV site and a GGSGGS linker; also called MBP-Ync13–6His; not shown: MBP, N-terminal, kept; His6, C-terminal, kept", "T1 sequence (looked up)": "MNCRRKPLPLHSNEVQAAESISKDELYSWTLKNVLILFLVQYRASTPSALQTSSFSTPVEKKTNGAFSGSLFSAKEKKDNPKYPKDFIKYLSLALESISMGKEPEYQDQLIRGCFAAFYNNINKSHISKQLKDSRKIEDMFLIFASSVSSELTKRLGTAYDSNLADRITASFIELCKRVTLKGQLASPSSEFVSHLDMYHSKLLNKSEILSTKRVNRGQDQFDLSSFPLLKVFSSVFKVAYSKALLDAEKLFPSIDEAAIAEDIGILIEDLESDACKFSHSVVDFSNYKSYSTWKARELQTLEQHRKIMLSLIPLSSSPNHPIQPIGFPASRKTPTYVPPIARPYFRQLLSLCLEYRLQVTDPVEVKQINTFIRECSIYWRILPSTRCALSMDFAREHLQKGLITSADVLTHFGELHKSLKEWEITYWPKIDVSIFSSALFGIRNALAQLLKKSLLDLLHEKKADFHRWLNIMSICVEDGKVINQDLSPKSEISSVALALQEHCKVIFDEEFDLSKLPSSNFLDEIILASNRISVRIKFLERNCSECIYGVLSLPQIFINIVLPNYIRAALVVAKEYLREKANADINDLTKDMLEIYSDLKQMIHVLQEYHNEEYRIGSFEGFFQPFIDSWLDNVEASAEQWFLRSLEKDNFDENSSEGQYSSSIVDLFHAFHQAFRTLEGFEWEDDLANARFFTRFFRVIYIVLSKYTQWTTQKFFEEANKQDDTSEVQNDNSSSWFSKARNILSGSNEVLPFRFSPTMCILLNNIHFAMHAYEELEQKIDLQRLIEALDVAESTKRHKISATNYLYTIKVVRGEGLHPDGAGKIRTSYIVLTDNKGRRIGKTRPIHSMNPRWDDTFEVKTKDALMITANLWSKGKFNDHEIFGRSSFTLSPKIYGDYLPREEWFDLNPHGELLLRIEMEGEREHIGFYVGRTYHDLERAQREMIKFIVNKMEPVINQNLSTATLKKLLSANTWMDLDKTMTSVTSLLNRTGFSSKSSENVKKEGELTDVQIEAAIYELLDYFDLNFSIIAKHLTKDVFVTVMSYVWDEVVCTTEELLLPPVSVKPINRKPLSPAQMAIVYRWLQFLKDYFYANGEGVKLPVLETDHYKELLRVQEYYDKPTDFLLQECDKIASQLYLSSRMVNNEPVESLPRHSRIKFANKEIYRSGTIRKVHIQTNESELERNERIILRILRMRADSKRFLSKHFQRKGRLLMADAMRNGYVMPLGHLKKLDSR", "assay": "supernatant depletion assay; Rga7–6xHis at 4 μM titrated with MBP-Ync13–6xHis immobilized on Cobalt beads; beads pelleted at 16,000 g, supernatants on Coomassie-stained SDS-PAGE, bound fraction fitted", "conditions": "both partners purified", "data": [{"binder": "B1", "values": [{"measurement": "Kd", "result": 10, "unit": "µM"}]}]}
